In the supplement of paper PMC9170038:

Legend:
Settings in all cases: FMN input: 0 or 200 uM; Eterna round: R93 (includes R88 designs)
MS2 coat protein [1] = assay: apparent KD of MS2 coat protein, switch OFF state (with FMN for OFF switches, without FMN for ON switches); designed switch direction (-1 OFF switch, 1 ON switch): 1; higher = weaker reporter binding
In short: (§1)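 Designed RNA switches were transcribed on-chip from Illumina sequencing clusters. SNAP-549-labelled MS2 coat protein was titrated onto them in twofold steps from 0.7 or 1.5 nM to 3 µM in 100 mM Tris-HCl pH 7.5, 80 mM KCl, 4 mM MgCl2, either without or with constant ligand. Apparent KD reflects the per-design median of normalised cluster binding-curve fits.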

MS2 coat protein [2] = assay: apparent KD of MS2 coat protein, switch ON state; designed switch direction (-1 OFF switch, 1 ON switch): 1; higher = weaker reporter binding
In short: as §1

MS2 coat protein [3] = assay: apparent KD of MS2 coat protein, switch OFF state (with FMN for OFF switches, without FMN for ON switches); designed switch direction (-1 OFF switch, 1 ON switch): -1; higher = weaker reporter binding
In short: as §1

MS2 coat protein [4] = assay: apparent KD of MS2 coat protein, switch ON state; designed switch direction (-1 OFF switch, 1 ON switch): -1; higher = weaker reporter binding
In short: as §1

| Sequence | apparent KD of MS2 coat protein (MS2 coat protein [1]) | apparent KD of MS2 coat protein (MS2 coat protein [2]) | apparent KD of MS2 coat protein (MS2 coat protein [3]) | apparent KD of MS2 coat protein (MS2 coat protein [4]) |
| --- | --- | --- | --- | --- |
| AAAAAAAAAACUCAGGAUAUAGAUCGUUGAACAUGAGGAUCACCCAUGUAGUGAAAAGCGAAAAACUAGAAGGGAGGAAAAAAAAA [SameState2-02] | 28.7 nM | 13.3 nM | – | – |
| AAAAAAAAAGUAGAGGAUAUCCGAGUGGUAACAUGAGGAUCACCCAUGUGAAGAAAGGAACAUGAGGAGAAGGCUACAAAAAAAAA [Normal (18/17)] | 30.4 nM | 11.9 nM | – | – |
| AAAAAAAAAGUAUAGGAUAUCCGAGUGGUAACAUGAGGAUCACCCAUGUGAAGAAAGGAAGAUGAGGAGAAGGAUACAAAAAAAAA [Mod of Mat of Nando] | 65.3 nM | 27.9 nM | – | – |
| AAAAAACAUGAGGAUCACCCAUGUAAAAAAAACACAGGAUAUCCAAAAAAAAAAAAAAAAGGAGAAGGGUGAAAAA [Nob - Jieux - Same State 1] | 48.3 nM | 22 nM | – | – |
| AAAAAACAUGAGGAUCACCCAUGUAAAAAAAACACAGGAUAUCCCUAAAAAAAAAAAAAAGGAGAAGGGUGAAAAA [Nob's Hobby 2 - Jieux - Same State 1] | 29.8 nM | 21.3 nM | – | – |
| AAAAAACAUGAGGAUCACCCAUGUAAUACAACAUCAGGAUAUUGGUUUUACUAUGUAUUACAAGAAGGGAUGAAAA [Same State 1.3b (Same State 1 - Omei 2 )] | 92.4 nM | 181 nM | – | – |
| AAAAAACAUGAGGAUCACCCAUGUAUAAAAUGGGAAGGAUAUACUAAGACGAAAGUCAUAGUAGAAGGUCCAAAAA [76%, Meechl, 12] | 193 nM | 44.5 nM | – | – |
| AAAAAACAUGAGGAUCACCCAUGUAUGAUAACAUCAGGAUAUUGGCUUGACUAUGUCUUACAAGAAGGGAUGAAAA [Same State 1.3e (Same State 1 - Omei 2 )] | 48.6 nM | 28.3 nM | – | – |
| AAAAAACAUGAGGAUCACCCAUGUCAAAAGACGUGAGGAUAUGUACAGACUUCGGUCUGUACAGAAGGCAUGAAAA [SS1 - 1056] | 136 nM | 32 nM | – | – |
| AAAAAACAUGAGGAUCACCCAUGUCCUCGGACGUGAGGAUAUGUACAGACUUCGGUCUGUACAGAAGGCACGUAAA [SS1 - 1042] | 402 nM | 492 nM | – | – |
| AAAAAACAUGAGGAUCACCCAUGUCGAAAGACAUGAGGAUAUGUACAGACUUCGGUCUGUACAGAAGGCAUGUAAA [SS1 - 1016] | 813 nM | 104 nM | – | – |
| AAAAAACAUGAGGAUCACCCAUGUCUUCGGACGUGAGGAUAUGUACAGACUUCGGUCUGUACAGAAGGCAUGAAAA [SS1 - 1058] | 381 nM | 176 nM | – | – |
| AAAAAACAUGAGGAUCACCCAUGUCUUUUGACAUGAGGAUAUGUACAGACUUCGGUCUGUACAGAAGGCAUGUAAA [SS1 - 1028] | 397 nM | 31.1 nM | – | – |
| AAAAAACAUGAGGAUCACCCAUGUGAGAACAAGGGAGGAUAUACGAAGACGAAAGUCGAAGUAGAAGGCCUAAAAA [Garnet 81] | 46.6 nM | 23.3 nM | – | – |
| GUCAGCUGAGGAUAUACAGGUGAUGCCGCAGAACAAAAUAUACAUGAGGAUCACCCAUGUAGAAGGCGGAAGAC [Terian] | – | – | 44.1 nM | 49.4 nM |
| GUGUACAGAGGAUAUACAUGGGCAUGAAAACAUGCAUCCUCACAUGAGGAUCACCCAUGUAGAAGGCUGUACAC [Ex2: 706] | – | – | 25.7 nM | 24.5 nM |
| UAAAAGCGAGGAUAUACAUGAGGAUCACCCAUGUGAAAGAAAAAUAAAAAAAAAAAAAGUAGAAGGCGCUAAAA [Ex 3 #2] | – | – | 65.7 nM | 58.9 nM |
| UAAAAGUGAGGAUAUUCGGAUAGGAAAACGAAAACCUAUCCGAAGAAGGCACAUGAGGAUCACCCAUGUAAAAU [Mat - Exaclusion 4 - Eli mod - D37] | – | – | 48 nM | 33.1 nM |
| UAAAGACAUGAGGAUCACCCAUGUGAGGAUAUAGGUGUAUGCAAAAAAAAGCAUACACCUAGAAGGCACAGAAA [JR_Exc001_Sub303] | – | – | 76.3 nM | 44 nM |
| UAAAGACAUGAGGAUCACCCAUGUGAGGAUAUCGGAGGUGACGGAGCAUCGAGUUCGGCGAGAAGGCGCAGGAA [JR_Exc001_Sub409] | – | – | 53.4 nM | 67.2 nM |
| UAAAGACAUGAGGAUCACCCAUGUGAGGAUAUGUGAGACAACAGAACAUCAAGUACAAGCAGAAGGCACAGAAA [JR_Exc001_Sub019] | – | – | 62.7 nM | 51.8 nM |

| Sequence | apparent KD of MS2 coat protein (MS2 coat protein [1]) | apparent KD of MS2 coat protein (MS2 coat protein [2]) | apparent KD of MS2 coat protein (MS2 coat protein [3]) | apparent KD of MS2 coat protein (MS2 coat protein [4]) |
| --- | --- | --- | --- | --- |
| UAAAGGAUAGGAUAUACAUGAGGAUCACCCAUGUGAAUAAAUAAAAAAAUAAAAUAAAGUAGAAGGAUCAAUAA [LROPPY Exclusion 3 - v04_deltaG=3.9 break up As] | – | – | 34 nM | 32.2 nM |
| UAAAGGAUAGGAUAUACAUGAGGAUCACCCAUGUGAAUAAAUAAGAAAAUAAAAGAAAGUAGAAGGAUCAAGAA [LROPPY Exclusion 3 - v04_deltaG=3.9 break up As mixed] | – | – | 29.6 nM | 25.2 nM |
| UAAAGGCGAGGAUAUACAUGAGGAUCACCCAUGUGAAUAAAUAAGAAAAUAAAAGAAAGUAGAAGGCGCAAGAA [LROPPY Exclusion 3 - v03_deltaG=1.9 break up As mixed] | – | – | 44.9 nM | 44.1 nM |
| UAAAGGCGAGGAUAUACAUGAGGAUCACCCAUGUGAAUAAAUAAUAAAAUAAAAUAAAGUAGAAGGCGCAAUAA [LROPPY Exclusion 3 - v03_deltaG=1.9 break up As] | – | – | 43.2 nM | 53.9 nM |
| UAACAGUCAGGAUAUGGACAAUACAAUACAAACAAAUAAAGCCAGAAGGGACAUGAGGAUCACCCAUGUAAACA [Simple] | – | – | 23 nM | 41.6 nM |
| UAAGGACAUGAGGAUCACCCAUGUGAGGAUAUGCUCUACGAACGUUUAUUUAUGAGAAGCAGAAGGCACAUUUU [try 2] | – | – | 127 nM | 50.4 nM |
| UAUAGACAUGAGGAUCACCCAUGUGAGGAUAUGAGUGACUACAGGACAUCACGUACAAUCAGAAGGCACAGAAA [JR_Exc001_Sub016] | – | – | 60.9 nM | 47.9 nM |
| UAUAUACAUGAGGAUCACCCAUGUCAGGAUAUGCGCCCAGAAUAUACAUAUGAUACAAGCAGAAGGGACACUAA [JR_Exc001_Sub205] | – | – | 49.3 nM | 55.3 nM |
| UCCACACAUGAGGAUCACCCAUGUGAGGAUAUCUAGAAAACCUCAUGUAAAAAAAUCUAGAGAAGGCACAUGAA [Design 92: Pseudoknot B] | – | – | 25 nM | 24 nM |
| UCCAGACAUGAGGAUCACCCAUGUCAGGAUAUCUAGAAAACCUCAUGUAAAAAAAACUAGAGAAGGGAUAUGGA [Design 95: Pseudoknot E] | – | – | 14.8 nM | 15.2 nM |
| UCCGGACAUGAGGAUCACCCAUGUGAGGAUAUAUAAAGUGGGACUAGAAACAGUCCCAAUAGAAGGCACAUGAC [Esarbiorar] | – | – | 17.6 nM | 22 nM |
| UCCGGACAUGAGGAUCACCCAUGUGAGGAUAUAUAAAGUGGGACUGGAAACAGGCCCAAUAGAAGGCACAUGAC [Atatesin] | – | – | 21.9 nM | 22.6 nM |
| UCCUCACAUGAGGAUCACCCAUGUUAGGAUAUGCCCGGCGGGUUCUGACCUGCCUAAAGCAGAAGGAACGUGCG [Cexequge] | – | – | 70.1 nM | 16.6 nM |
| UGCAUGUAAGGAUAUGCAACCGGCGCUCAUUAACCGGUCAAGCAGAAGGUACAUGAGGAUCACCCAUGUGUCCG [Esteleus] | – | – | 52.2 nM | 17.2 nM |
| UGGGAGUCAGGAUAUACGAACAUGUCGCCAGAUGUCAAGGUACAUGAGGAUCACCCAUGUAGAAGGGACGAGAA [salish99-Ex2-28] | – | – | 34.1 nM | 53.1 nM |
| UGUUGGCGAGGAUAUACAUGAGGAUCACCCAUGUGAGAGAAAAAAGUGAGAAAGAAAAGUAGAAGGCGCUGACA [salish99-ex3-07] | – | – | 282 nM | 46.2 nM |
| UUAACACAUGAGGAUCACCCAUGUUAGGAUAUUGUGGUAGGAACAACUGGGAAACGCACAAGAAGGGACACACA [EX1 Malc#18 Mod 18 - Jieux - Exclusion 1] | – | – | 26.6 nM | 29.2 nM |
| UUAGAACAUGAGGAUCACCCAUGUGAGGAUAUGCAAUACUAAAAAAAAGAUAAUUAUAGCAGAAGGCACGUAGU [JR_EXc001_Sub805] | – | – | 41.4 nM | 35.1 nM |
| UUCAAGUGAGGAUAUACGAAUAGUAAGUAAGUAUAACAGACGUAGAAGGCACAUGAGGAUCACCCAUGUAAAUA [JR_Exc004_Sub304] | – | – | 22.5 nM | 25.8 nM |
| UUCGCACAUGAGGAUCACCCAUGUCAGGAUAUCGUGGCGGGAAAAACCGGGAAACGCACGAGAAGGGACACACA [EX1 Malc#18 Mod 15 - Jieux - Exclusion 1] | – | – | 51.5 nM | 47.3 nM |
| UUUAUGUGAGGAUAUGUACAGAAAAAAAAGGGUGUAACUGUACAGAAGGCACAUGAGGAUCACCCAUGUGAAUA [EX4 381: S S Pseudoknot 6] | – | – | 216 nM | 113 nM |
